In patent US20160152711A1:

How the values were obtained:
[1] = biological target: sEGFR domain III (residues 310-512) (human) (UniProt P00533); assay: size exclusion chromatography (Superdex 200), 4 µM; the individual proteins elute at 15.6 mL
[2] = biological target: sEGFR domain III S460P/G461N (human) (UniProt P00533); assay: as above
[3] = biological target: sEGFR domain III (residues 310-512) (human) (UniProt P00533); assay: size exclusion chromatography (Superdex 200), 4 µM, domain III with Fab 425 and Fab C225 together

Fab 425
elution volume of the complex [1]: 13.9 mL
elution volume of the mixture [2]: 15.2 mL
elution volume of the tripartite complex [3]: 13.1 mL
